Measurements taken from the supplement of paper PMC10567573.

B1: MYL5 (parent)
chain: DVAGNLDYKALSYVITHGEEKEE
B2: NR2F2 (parent)
chain: NIPFFPDLQITDQVALLRLTWSEL

Variants of: B1
Test: protein stability index of a GFP-peptide fusion (GPS, HEK-293T) (PSI 1-6); higher = more stable
Conditions: c terminus: native
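Further: lentivirally expressed fusions sorted by FACS into six bins by GFP to DsRed ratio, PSI derived from sequencing read proportions per bin multiplied by bin number.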

Protein stability index: each site, then its substitutions
G4: S 2.09; N 1.51; E 2.63; D 1.82; Q 1.8; A 2.02; F 1.77; V 1.92; P 1.61; T 2.42; C 2.45; H 2.09; Y 1.57; I 1.46; L 2.03; M 1.59; R 2.5
D7: G 2.02; Q 1.64; V 1.96; I 1.44; R 1.69; F 1.04; P 1.83; A 1.89; H 2.83; M 2.11; Y 2.1; N 1.91; E 2.29; T 1.57; S 2.5; K 3.18
V2: P 1.67; G 2.06; N 1.75; W 4.54; R 2.3; D 2.19; K 1.82; Y 4.5; H 1.92; I 2.61; M 1.87; C 2.31; S 1.82; F 1.19; L 1.78; A 1.64; E 1.35; T 2
N5: W 1.83; D 2.69; E 2.43; F 1.87; Q 2.61; V 2.05; M 1.3; R 1.67; L 3.25; K 1.97; I 2.54; T 2.29; G 2.88; H 1.92
L6: W 1.72; N 3.84; C 1.74; A 2.55; D 2.06; H 2.28; Q 1.93; T 2.82; S 1.7; Y 1.93; M 1.76; G 1.93; E 2.52; K 2.06; F 2.82; P 2.01; V 1.36
A3: C 1.29; I 1.71; N 1.54; Y 2.15; D 1.87; K 2.15; W 3.06; P 1.83; T 2.21; V 1.97; H 1.8; E 2.1; L 2.31; Q 1.75
D1: K 2.34; V 1.66; Q 2.1; H 3.37; R 2.74; C 2.21; M 1.65; A 2.07; N 2.24; T 2.13; I 1.97; P 1.66; S 2.46; F 2.11
Y8: N 1.56; R 1.75; P 2.05; K 1.39; H 1.48; A 2.1; I 2.11; E 2.01; D 1.81; C 2.32; Q 1.98

Variants of: B2
Test: as above
Conditions: c terminus: a fixed tail appended

Protein stability index of substitutions, site by site:
L24: W 2.55; S 1.9; A 1.64; P 1.88; Q 1.9; F 1.99; T 1.98; M 2.87; K 2.25; G 1.65; C 2.62; H 2.68; E 2.02; V 2.22; Y 1.65; D 2.11; N 1.97; R 1.96
S22: M 3.55; N 2.28; R 1.53; Q 1.91; V 1.67; P 1.82; Y 3.13; W 3.5; T 2.19
E23: K 1.55; R 2.02; V 1.76; Q 2.12; T 3.56; A 2.71; F 3.75; C 3.21; D 3.12; M 3.42; S 2.97; N 3.71; W 3.24; I 2.96; L 2.57; P 2.24; H 3.17; Y 2.74; G 2.17
